Target: the molecule itself
Assay: SEC + co-IP

B1: NH2 epitope-tagged SIS1 (amino-terminal-tagged SIS1 protein) (natural protein)
chain: MVKETKLYDLLGVSPSANEQELKKGYRKAALKYHPDKPTGDTEKFKEISEAFEILNDPQKREIYDQYGLEAARSGGPSFGPGGPGGAGGAGGFPGGAGGFSGGHAFSNEDAFNIFSQFFGGSSPFGGADDSGFSFSSYPSGGGAGMGGMPGGMGGMHGGMGGMPGGFRSASSSPTYPEEETVQVNLPVSLEDLFVGKKKSFKIGRKGPHGASEKTQIDIQLKPGWKAGTKITYKNQGDYNPQTGRRKTLQFVIQEKSHPNFKRDGDDLIYTLPLSFKESLLGFSKTIQTIDGRTLPLSRVQPVQPSQTSTYPGQGMPTPKNPSQRGNLIVKYKVDYPISLNDAQKRAIDENF
B1 was tested, and the “stoichiometry N” value was 2.

— PMC2289895 (The Journal of Cell Biology, 1991)
